For this assay, the target named is wild-type KRAS peptide on HLA-C*08:02, on peptide-pulsed cells (Homo sapiens, HLA-C*08:02). Nature of the assay: flow cytometry on cells.

B1: C8K10D5-1 Fab (Fab, V domains shown)
VH: EVQLVESGGGLVQPGRSLRLSCAASGFTFDQYAMHWVRQAPGKGLEWVSGISAYSLSIGYADSVKGRFTISRDNAKNSLYLQMNSLRAEDTAVYYCARGRSEGVYMDGMDIWGSGTLVTVSS
VL: SYVLTQPPSVSVAPGQTARITCGGNNIKYRDVHWYQQKPGQAPVLVVYQDTLRPQGIPERFSGSNSGNMATLTISRVEAGDEADYYCQVWDWDTDHWVFGGGTDLTVL
Regarding B1, the binding result is listed as “no binding (tested: 50 nM Fab)”.
